From PMC3079584, “A Cytoplasmic Complex Mediates Specific mRNA Recognition and Localization in Yeast”

Legend:
She3p (334-425) = target: T1, She3p (334-425) (Saccharomyces cerevisiae, UniProt P38272 334-425); assay: EMSA; +++; EMSA: 20 mM HEPES pH 7.8, 200 mM NaCl, 2 mM MgCl2, 2 mM DTT, 4% glycerol, 30 or 100 ug/ml yeast tRNA, 5 nM RNA, 20 C; filter binding: 20 mM HEPES pH 7.4-7.5 (7.9 with She3p), 150 mM NaCl, 2 mM MgCl2, 2 mM DTT, 30 ug/ml yeast tRNA, 0.5 nM RNA; pull-down: HNMD buffer, 4 C; details: protein: recombinant; tags: MBP and His6 (EMSA); His6 (SEC, cross-linking); label: 32P; stem-loop
T1 sequence: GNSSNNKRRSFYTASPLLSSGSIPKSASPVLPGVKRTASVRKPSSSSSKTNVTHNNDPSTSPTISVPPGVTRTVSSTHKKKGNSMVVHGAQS

She3p (S343E S361E) = target: T2, She3p (S343E S361E) (Saccharomyces cerevisiae, UniProt P38272 1-425, S343E;S361E); assay: as above; details: protein: recombinant; tags: C-terminal His6; label: 32P; stem-loop
T2 sequence: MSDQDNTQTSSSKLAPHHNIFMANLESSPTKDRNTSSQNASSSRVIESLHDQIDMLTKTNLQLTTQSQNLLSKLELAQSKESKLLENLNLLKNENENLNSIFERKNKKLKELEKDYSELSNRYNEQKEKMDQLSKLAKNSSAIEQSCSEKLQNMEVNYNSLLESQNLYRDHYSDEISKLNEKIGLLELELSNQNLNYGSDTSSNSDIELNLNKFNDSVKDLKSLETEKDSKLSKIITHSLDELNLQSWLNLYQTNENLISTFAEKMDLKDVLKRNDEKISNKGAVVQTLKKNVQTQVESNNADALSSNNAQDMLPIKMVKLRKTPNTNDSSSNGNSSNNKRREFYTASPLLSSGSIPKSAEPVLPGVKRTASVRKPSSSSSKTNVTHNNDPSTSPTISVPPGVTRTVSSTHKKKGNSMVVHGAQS

She3p (S348E) = target: T3, She3p (S348E) (Saccharomyces cerevisiae, UniProt P38272 1-425, S348E); assay: as above; details: protein: recombinant; tags: C-terminal His6; label: 32P; stem-loop
T3 sequence: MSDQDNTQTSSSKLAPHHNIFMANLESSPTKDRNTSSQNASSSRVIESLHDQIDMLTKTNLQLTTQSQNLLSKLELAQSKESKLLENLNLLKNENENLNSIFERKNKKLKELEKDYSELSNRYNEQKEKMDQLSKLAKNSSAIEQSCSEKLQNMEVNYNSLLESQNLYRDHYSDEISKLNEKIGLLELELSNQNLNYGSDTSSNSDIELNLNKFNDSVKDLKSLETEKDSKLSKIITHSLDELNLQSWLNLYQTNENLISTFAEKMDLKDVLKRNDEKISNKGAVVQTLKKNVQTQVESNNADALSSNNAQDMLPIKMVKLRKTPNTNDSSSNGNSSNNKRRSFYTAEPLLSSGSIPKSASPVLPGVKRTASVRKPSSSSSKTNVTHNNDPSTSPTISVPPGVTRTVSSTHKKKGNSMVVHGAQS

She2p (ΔhE);She3p = She2p (ΔhE);She3p (Saccharomyces cerevisiae;Saccharomyces …, UniProt P36068;P38272 1-246;1-425, del174-183|); assay: EMSA; no mobility shift; EMSA: 20 mM HEPES pH 7.8, 200 mM NaCl, 2 mM MgCl2, 2 mM DTT, 4% glycerol, 30 or 100 ug/ml yeast tRNA, 5 nM RNA, 20 C; filter binding: 20 mM HEPES pH 7.4-7.5 (7.9 with She3p), 150 mM NaCl, 2 mM MgCl2, 2 mM DTT, 30 ug/ml yeast tRNA, 0.5 nM RNA; pull-down: HNMD buffer, 4 C; details: protein: recombinant;recombinant; tags: GST tag (PreScission-cleaved);C-terminal His6; chain copies: 4;2; label: 32P; stem-loop
She2p = She2p (Saccharomyces cerevisiae, UniProt P36068 1-246); assay: filter binding; +++ reference; EMSA: 20 mM HEPES pH 7.8, 200 mM NaCl, 2 mM MgCl2, 2 mM DTT, 4% glycerol, 30 or 100 ug/ml yeast tRNA, 5 nM RNA, 20 C; filter binding: 20 mM HEPES pH 7.4-7.5 (7.9 with She3p), 150 mM NaCl, 2 mM MgCl2, 2 mM DTT, 30 ug/ml yeast tRNA, 0.5 nM RNA; pull-down: HNMD buffer, 4 C; details: protein: recombinant; tags: GST tag (PreScission-cleaved); chain copies: 4; label: 32P; stem-loop
She2p;She3p = She2p;She3p (Saccharomyces cerevisiae;Saccharomyces …, UniProt P36068;P38272 1-246;1-425, |); assay: EMSA; She3p constant 25 nM, She2p varied; EMSA: 20 mM HEPES pH 7.8, 200 mM NaCl, 2 mM MgCl2, 2 mM DTT, 4% glycerol, 30 or 100 ug/ml yeast tRNA, 5 nM RNA, 20 C; filter binding: 20 mM HEPES pH 7.4-7.5 (7.9 with She3p), 150 mM NaCl, 2 mM MgCl2, 2 mM DTT, 30 ug/ml yeast tRNA, 0.5 nM RNA; pull-down: HNMD buffer, 4 C; details: protein: recombinant;recombinant; tags: GST tag (PreScission-cleaved);C-terminal His6; chain copies: 4;2; label: 32P; stem-loop
Sequence of She2p;She3p (P36068 whole entry, one chain of several): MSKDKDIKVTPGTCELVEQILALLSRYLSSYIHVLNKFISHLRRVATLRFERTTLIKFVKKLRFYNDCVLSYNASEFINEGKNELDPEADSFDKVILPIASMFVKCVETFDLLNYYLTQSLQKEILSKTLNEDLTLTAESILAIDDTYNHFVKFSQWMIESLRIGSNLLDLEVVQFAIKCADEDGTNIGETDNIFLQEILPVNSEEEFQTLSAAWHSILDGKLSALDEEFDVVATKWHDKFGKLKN

Sequence of She2p (P36068 whole entry): as the sequence (P36068 whole entry, one chain of several) above
Sequence of She2p (ΔhE);She3p (P36068 other isoform, or with tags, fused parts or gaps del174-183| | mutant): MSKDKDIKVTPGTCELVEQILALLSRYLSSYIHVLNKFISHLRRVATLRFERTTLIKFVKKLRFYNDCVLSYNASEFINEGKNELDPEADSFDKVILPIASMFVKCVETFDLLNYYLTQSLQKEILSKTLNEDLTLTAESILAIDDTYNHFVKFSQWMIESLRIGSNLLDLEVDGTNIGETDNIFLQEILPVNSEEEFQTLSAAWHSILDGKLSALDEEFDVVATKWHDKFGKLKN

B1: ASH1 E3-118 (structured_RNA)
RNA: GAGACAGUAGAGAAUUGAUACAUGGAUAACUGAAUCUCUUUCAACUAAUAAGAGACAUUAUCACGAAACAAUUGUACAUUUCUCUCCUUGUCUGUGCUAAAUAAACUACAAAUAAAAA
binding result (She3p (334-425)): binds | binding result (She3p (S343E S361E)): binds | binding result (She3p (S348E)): binds | binding result (She2p (ΔhE);She3p): no binding | binding result (She2p): binds | Kd (She2p;She3p): ~25 nM
